Experimental data taken from the nanobody polyreactivity screen of Harvey et al. (2022).

assay: yeast display, Sf9 membrane polyspecificity reagent, FACS + sequencing; frameworks hold sequencing errors
Outline: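 After 36–48 hours of galactose induction, yeast (Saccharomyces cerevisiae BJ5465) displaying a synthetic nanobody library were stained at 4 °C for 1 hour with 10% biotinylated, detergent-solubilized Sf9 membrane reagent. Streptavidin microbeads enriched the stained cells before FACS sorting into low and high (top ~1%) gates on anti-HA and streptavidin fluorescence. Each clone's polyreactivity label reflects its gate of origin.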

| Sequence | polyreactivity (PSR sort gate) |
| --- | --- |
| QVQLVESGGGLVQAGGSLRLSCAASGRTFRGNAMGWYRQAPGKERELVAAISRGGSTKYADSVKGRFTISGDNAKNTVYLQMNSLKPEDTAVYYCAADNRKSRYDYWGQGTQVTVSS | high polyreactivity |
| QVQLVESGGGLVQAGGSLRLSCAASGRTFRGNAMGWYRQAPGKERELVAAISRRGVSTYYADSVKGRFTISRDNAKNTVYLQMNSLKPEDTAVYYCNADTSYQRVGGNYWGQGTQVTVSS | high polyreactivity |
| QVQLVESGGGLVQAGGSLRLSCAASGRTFRGNAMGWYRQAPGKERELVAAISWSGGRTYYADSVKGRFTISRDNAKNTVYLQMNSLKPEDTAVYYCAAGVPKNGQAGYDYWGQGTQVTVSS | high polyreactivity |
| QVQLVESGGGLVQAGGSLRLSCAASGRTFRGNAMGWYRQATGKERELVDVITASGSTTYADSVKGRFTISRDNAKNTVYLQLYSLKPEDTAVYYCAKYVPWYTLWLGGTDRDYWGQGTQVTVSS | low polyreactivity |
| QVQLVESGGGLVQAGGSLRLSCAASGRTFRGNAMRWYRQAPGKERELVAAIRWNGGSTYYADSVKGRFTISRDNAKNTVYLQMNSLKPEDSAVYYCAVSYWYSRYDYWGQGTQVTVSS | high polyreactivity |
| QVQLVESGGGLVQAGGSLRLSCAASGRTFRGNVMGWYRQAPGKEREFVAAITKSDGSTYYADSVKGRFTISRDNAKNTVYLQMNSLKPEDTAVYYCAARTARTGWPWFRYDYWGQGTQVTVSS | low polyreactivity |
| QVQLVESGGGLVQAGGSLRLSCAASGRTFRGYAMGWYRQAPGKERELVAAITWRGGSTKYADSVKGRFTISRDNAKNTVYLKMNSLKPEDTAVYYCAAARHYLTFWGQGSQVTVSS | high polyreactivity |
| QVQLVESGGGLVQAGGSLRLSCAASGRTFRGYAMGWYRQAPGKETELVAAISSGGSTYYADSVKGRFTSSRDNAKYTVYLQMNSLKPEDTAVYYCARAVGNYRTLEFDYWGQGTQVTVSS | low polyreactivity |
| QVQLVESGGGLVQAGGSLRLSCAASGRTFRGYVMGWYRQAPGKERELVASISYSGGSTYYADSVKGRFTISRDNAKNTVYLQMNSLKPEDTAVYYCAARKGYDQYRWRYSQNNYWGQGTQVTVSS | high polyreactivity |
| QVQLVESGGGLVQAGGSLRLSCAASGRTFRLYAMGWYRQAPGKERELDAAIRTDDSTNYADSVKGRFTISRDNAKNTVYLQMNSLKPEDTAVYYCNAEGQFTWLGRRRHKFEYWGQGTQVTVSS | low polyreactivity |
| QVQLVESGGGLVQAGGSLRLSCAASGRTFRLYAMGWYRQAPGKERELVAAIRSGGSTNYADSVKGRFTISRDNEKNTVYLQMNSLKPEYTAVYYCAVDGYFFQGPYYYWGQGTQVTVSS | low polyreactivity |
| QVQLVESGGGLVQAGGSLRLSCAASGRTFRLYAMGWYRQAPGKERELVAAISYSDGRTYYADSVKGRFTISRDNAKNTVYLQMNSLKPEDTAVYYCAAETLYVSPYFYVVQYDYWGQGTQVTVSS | high polyreactivity |
| QVQLVESGGGLVQAGGSLRLSCAASGRTFRLYAMGWYRQAPGKERELVAAITFRGGRTYYADSVKGRFTISRDNAKNTVYLQMNSLKPEYTAVYYCNAVTYSSPYRFDYWGQGTQVTVSS | low polyreactivity |
| QVQLVESGGGLVQAGGSLRLSCAASGRTFRLYAMGWYRQAPGKERELVAVIRAGDSTNYADSVKGRFTISRDNAKNTVYLQLNSLKPDDTAVSYCAADVLYYYGKYDYWGQGTQVTVSS | high polyreactivity |
| QVQLVESGGGLVQAGGSLRLSCAASGRTFRNNTMGCYRQAPGKERELVATITGSGGSTYYADSVKGRFTISRDNSKNTVYLQMNSLKPEDTAVYYCAAVGDQNEYVYWGQGTQVTVSS | low polyreactivity |
| QVQLVESGGGLVQAGGSLRLSCAASGRTFRNYAMGWSRPAPWKERELVATITSSGASTYYADSVKGRFTISRDNAKNTVYLQMNSLKPEDTAVYYCAARPYTGRYFLCYYYWGQGTQVTVSS | high polyreactivity |
| QVQLVESGGGLVQAGGSLRLSCAASGRTFRPYAMGWSRQAPGKERELVAAIDSSGTSTYYADSVKGRFTISRDNAKNTVYLQMNSLKPEDTAVYYCAKAWPDHWYSRYDYWGQGTQVTVSS | low polyreactivity |
| QVQLVESGGGLVQAGGSLRLSCAASGRTFRPYAMGWYRPAPGKERELVAAISSRGSSTYYADSVKGRFTISRDNAKNTVYLQMNSLKPEDTAVYYCAARSYWGGLRYDYWGQGTQVTVSS | high polyreactivity |
| QVQLVESGGGLVQAGGSLRLSCAASGRTFRPYAMGWYRQAPGKERELVAAISQSVGSTYYADSVKGRFTISRDNAKNTVYLQMNSLKPEDTAVYYCAADRWSATHYVWYDYWGQGTQVTVSS | high polyreactivity |
| QVQLVESGGGLVQAGGSLRLSCAASGRTFRPYAMGWYRQAPGKERQFVAAISSSGGSTYYADSVKGRFSISRDNAKNTVYLLMNSLKPEDTAVYYCATGRKNAAQRWGYYYWGQGTQVTVSS | high polyreactivity |
| QVQLVESGGGLVQAGGSLRLSCAASGRTFRPYDMGWYRQAPGKERELVATITTNGGSTYYADSVKGRFTISRDNAKNTVYLQMNSLKPEDTAVYYCATDNWWQTYHYQGGYYWGQGTQVTVSS | low polyreactivity |
| QVQLVESGGGLVQAGGSLRLSCAASGRTFRQYAMGWYRQAPGKERELVATISSGGSTYYADSVKGRFTISRDNAKNTVYLHMNSLKPEDTAVYYCNAEGQWSRAPRDYWGQGTQVTVSS | low polyreactivity |

| Sequence | polyreactivity (PSR sort gate) |
| --- | --- |
| QVQLVESGGGLVQAGGSLRLSCAASGRTFRRNAMGWYRQAPGKERELVAAISSRGGSTYYADSVKGRFTISRDNAKNSVYLQMNSLKPEDTAVYYCNKGTPPTGTLGDYEYWGQGTQVTVSS | high polyreactivity |
| QVQLVESGGGLVQAGGSLRLSCAASGRTFRRYAMGWYRQAPGKERELVAAISRSGGSTYYADSVKGRFTISRDNAKNTVYLQMNSLKPEETAVYYCAAGIWSKLVEPFDYWGQGTQVTVSS | high polyreactivity |
| QVQLVESGGGLVQAGGSLRLSCAASGRTFRRYAMGWYRQAPGKERELVAVITRGGNTNYADSVKGRFTISRDNAKNTVYLQMNSLKPEDTAVYYCAAELYNYGYDYWGQGTQVTVSS | low polyreactivity |
| QVQLVESGGGLVQAGGSLRLSCAASGRTFRSDNAMGWYRQAPGKERELVAAISQGGGTYYADSVKGRFTISRDNAKNTVYLQMNSLKPEDTAVYYCARDAYYADPSLWYYTYDYWGQGTQVNVSS | low polyreactivity |
| QVQLVESGGGLVQAGGSLRLSCAASGRTFRSNAMGWYRQAPGKERELVATISGRGGSTYYADSVKGRFTISRDNAKNTVYLQMNSLKPEDTAVYYCAKRTTLIRDYEYWGQGTQVTVSS | high polyreactivity |
| QVQLVESGGGLVQAGGSLRLSCAASGRTFRSNTKGGYRQAPGKERELVAAISWSGTRTYYADSVKGRFTISRDNAKNSVYLQMNSLKPEDTAVYYCNAVGFDQPRYYYWGQGTQVTVSS | high polyreactivity |
| QVQLVESGGGLVQAGGSLRLSCAASGRTFRSNVMRWYRQAPGKERELVASITWSGGTTYYADSVKGRFTISRDNAKNTVYLQMNSLKPEDTAVYYCNAADERSQGWVGYDHWGQCTQVTVSS | low polyreactivity |
| QVQLVESGGGLVQAGGSLRLSCAASGRTFRSYAMGWYRQAPGKERELVAAISDGGSTNYADSVKGRFTISRDNAKNTVYLQMNSLKPEDTAVYYCAAEIFFAVFRFYYWGQGTQVTVSS | low polyreactivity |
| QVQLVESGGGLVQAGGSLRLSCAASGRTFRSYAMGWYRQAPGKERELVAAISRGGRTNYADSVKGRFTISRDNAKNTVYLQMNSLKPEDTAVYYCAARLPYLGGYDYWGQGTQVTVSS | high polyreactivity |
| QVQLVESGGGLVQAGGSLRLSCAASGRTFRSYTMGWYRQAPGKERELVAAIRTSSGSTYYADSVKGRFTISRDNAKNTVYLQMNSLKPEDSGVYYGAKTLLYPWFRTVAVDYWGQGTQVTVSS | low polyreactivity |
| QVQLVESGGGLVQAGGSLRLSCAASGRTFRSYTMGWYRQAPGKERELVASITRSGVSTYYADSVKGRFTISRDNAKNTVYLQMNSLKPEDTAVYYCAAYSVFRSYDYWGQGTQVTVSS | high polyreactivity |
| QVQLVESGGGLVQAGGSLRLSCAASGRTFRTYAMGWYRQAPGKERELVAAISFSDGSTYYADSVKGRFTISRDNAKNTVYLQMNSLKPEDTAVYYCAKEYEYPYYIRYQVGYDFDYWGQGTEVTVSS | low polyreactivity |
| QVQLVESGGGLVQAGGSLRLSCAASGRTFRTYAMGWYRQAPGKERELVAAITSGGSTYYADSVKGRFTISRDNAKNTVYLQMNSLKPEDTAVYDCAAISTWGTKYDYWGQGTQVTVSS | high polyreactivity |
| QVQLVESGGGLVQAGGSLRLSCAASGRTFRTYAMGWYRQAPGKERELVAAITTSGSSTYYADSVKGRFTISRDNAKNTVYLQMNSLKPEDTAVYYCAAARAAIVPGYYSWGQGTQVTVSS | low polyreactivity |
| QVQLVESGGGLVQAGGSLRLSCAASGRTFRTYTMGWYRQAPGKERELVAAISWSGSSTYYADSVKGRFTISRDNAKNTVYLQMNSLKPEDTAGYYCAARGLYDYGYWGQGTQVTVSS | high polyreactivity |
| QVQLVESGGGLVQAGGSLRLSCAASGRTFRVYAIGWYRQAPGKEREFVATISVRGGSTYYADSVKGRFTISRDNAKNTVYLQMNSLKPEDTAVYYCAADSYPYVYALYDSWGLGTQVTVSS | low polyreactivity |
| QVQLVESGGGLVQAGGSLRLSCAASGRTFRVYAMGWYRQAPGKERELVAAINGGGSTNYADSVKGRFTISRDNAKNTVYLQMNSLKPEDTAVYYCIATGRRSKRIYDYWGQGTQVTVSS | high polyreactivity |
| QVQLVESGGGLVQAGGSLRLSCAASGRTFRVYAMGWYRQAPGKERELVAAINGGGSTNYADSVKGRFTISRDNAKNTVYVQMNSLKPEDTAVYYCNATGRRSKRIYDYWGQGTQVTVSS | high polyreactivity |
| QVQLVESGGGLVQAGGSLRLSCAASGRTFRVYAMGWYRQAPGKERELVAGIRSRGGSTYYADSVKGRFTISRDYAKNTVYLQMNSLKPEDTAVYYCAAGYYLPQAIYEYWGLGTQVTVSS | high polyreactivity |
| QVQLVESGGGLVQAGGSLRLSCAASGRTFRWNAMGWYRQAPGKERELVASITVNGGSTSYADSVKGRFTISRDNAKNTVYLQMNSLKPEDTAVYYCNAYYTYWYPRYDYWGQGTQVTVSS | low polyreactivity |
| QVQLVESGGGLVQAGGSLRLSCAASGRTFRWNVMGWYRQAPGKERELVAAISSDGSTYYADSVKGRFTISGDNAKNTVYLQMNSLKPEDTAVYYCAAVVSYYFRYGGSAYKYGYWGQGTQVTVSS | high polyreactivity |
